System: Escherichia coli TOP10
Assay: shrunken log2 fold change of peptide-encoding DNA abundance (4.5 h post-induction vs induction); higher = less antimicrobial activity (less host growth inhibition)
Details: time post-induction: 4.5 h; library: site-saturation at positions 5, 18, 19, 20
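Note: peptides expressed intracellularly from a pBAD plasmid library in pooled LB shake-flask culture, induced with 0.3% L-arabinose, DNA abundance read by NGS, three biological replicates, DESeq2 with apeglm shrinkage.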

Row | Sequence | shrunken log2 fold change
1 | RRIRNRPPRLPRPRPRPQLFPRP | 0.177
2 | RRIRARPPRLPRPRPRPCVQPRP | 0.217
3 | RRIRDRPPRLPRPRPRPANNPRP | -0.218
4 | RRIRERPPRLPRPRPRPDDTPRP | -0.0925
5 | RRIRCRPPRLPRPRPRPAWNPRP | 0.035
6 | RRIRGRPPRLPRPRPRPAFHPRP | 0.209
7 | RRIRFRPPRLPRPRPRPCHKPRP | -0.443
8 | RRIRWRPPRLPRPRPRPVCFPRP | 0.376
9 | RRIRGRPPRLPRPRPRPQEFPRP | 0.27
10 | RRIRHRPPRLPRPRPRPWCEPRP | 0.0456
11 | RRIRMRPPRLPRPRPRPYPWPRP | -0.274
12 | RRIRGRPPRLPRPRPRPNRVPRP | 0.0309
13 | RRIRARPPRLPRPRPRPQHFPRP | 3.55
14 | RRIRWRPPRLPRPRPRPPNHPRP | 0.0941
15 | RRIRCRPPRLPRPRPRPQRNPRP | -0.0392
16 | RRIRDRPPRLPRPRPRPVIMPRP | -0.381
17 | RRIRDRPPRLPRPRPRPFYQPRP | -0.276
18 | RRIRLRPPRLPRPRPRPHEYPRP | -0.0491
19 | RRIRRRPPRLPRPRPRPNWFPRP | -0.0681
20 | RRIRCRPPRLPRPRPRPTQSPRP | 0.565
21 | RRIRWRPPRLPRPRPRPVCEPRP | 0.825
22 | RRIRDRPPRLPRPRPRPRKCPRP | -0.0114
23 | RRIRVRPPRLPRPRPRPRANPRP | 0.384
24 | RRIRPRPPRLPRPRPRPSARPRP | 0.186
25 | RRIRPRPPRLPRPRPRPFCTPRP | -0.00789

Row | Sequence | shrunken log2 fold change
26 | RRIRARPPRLPRPRPRPDDRPRP | -0.149
27 | RRIRCRPPRLPRPRPRPAAMPRP | 0.281
28 | RRIRTRPPRLPRPRPRPEYRPRP | 0.0555
29 | RRIRSRPPRLPRPRPRPREQPRP | 0.796
30 | RRIRNRPPRLPRPRPRPEHGPRP | -0.0132
31 | RRIRQRPPRLPRPRPRPVIVPRP | -0.0674
32 | RRIRWRPPRLPRPRPRPKFMPRP | -0.0525
33 | RRIRFRPPRLPRPRPRPWRGPRP | 0.172
34 | RRIRLRPPRLPRPRPRPFKFPRP | -0.202
35 | RRIRYRPPRLPRPRPRPVPDPRP | -0.0838
36 | RRIRYRPPRLPRPRPRPTPQPRP | 0.161
37 | RRIRIRPPRLPRPRPRPVTVPRP | 0.129
38 | RRIRRRPPRLPRPRPRPVKIPRP | 0.266
39 | RRIRTRPPRLPRPRPRPPQIPRP | 0.16
40 | RRIRERPPRLPRPRPRPWYDPRP | -0.392
41 | RRIRARPPRLPRPRPRPFEPPRP | 0.276
42 | RRIRRRPPRLPRPRPRPPHVPRP | 0.915
43 | RRIRVRPPRLPRPRPRPAYVPRP | -0.17
44 | RRIRCRPPRLPRPRPRPYYCPRP | -1.03
45 | RRIRYRPPRLPRPRPRPAPDPRP | 0.307
46 | RRIRDRPPRLPRPRPRPTTCPRP | 0.463
47 | RRIRARPPRLPRPRPRPWKIPRP | -0.117
48 | RRIRPRPPRLPRPRPRPKHRPRP | 0.0187
49 | RRIRCRPPRLPRPRPRPEARPRP | 0.193
50 | RRIRIRPPRLPRPRPRPDYVPRP | 0.012

Row | Sequence | shrunken log2 fold change
51 | RRIRWRPPRLPRPRPRPHTVPRP | 0.00981
52 | RRIRDRPPRLPRPRPRPTCSPRP | 0.112
53 | RRIRTRPPRLPRPRPRPHSTPRP | -0.374
54 | RRIRLRPPRLPRPRPRPINTPRP | -0.881
55 | RRIRARPPRLPRPRPRPAGTPRP | 0.308
56 | RRIRERPPRLPRPRPRPFLEPRP | -0.436
57 | RRIRPRPPRLPRPRPRPKGSPRP | 0.0684
58 | RRIRKRPPRLPRPRPRPCLKPRP | -0.0379
59 | RRIRSRPPRLPRPRPRPGMRPRP | 0.789
60 | RRIRWRPPRLPRPRPRPIKEPRP | 0.0169
61 | RRIRSRPPRLPRPRPRPRCRPRP | 0.385
62 | RRIRPRPPRLPRPRPRPIYSPRP | -0.225
63 | RRIRWRPPRLPRPRPRPHIKPRP | -0.243
64 | RRIRCRPPRLPRPRPRPLFKPRP | -0.475
65 | RRIRRRPPRLPRPRPRPGAPPRP | 0.891
66 | RRIRCRPPRLPRPRPRPQLMPRP | 0.285
67 | RRIRYRPPRLPRPRPRPNTVPRP | -0.301
68 | RRIRGRPPRLPRPRPRPESNPRP | 2
69 | RRIRRRPPRLPRPRPRPWITPRP | -0.0428
70 | RRIRPRPPRLPRPRPRPKNLPRP | -0.0674
71 | RRIRVRPPRLPRPRPRPAPDPRP | 0.377
72 | RRIRMRPPRLPRPRPRPKQAPRP | 3.56
73 | RRIRPRPPRLPRPRPRPLDMPRP | -0.142
74 | RRIRMRPPRLPRPRPRPWRCPRP | 0.0452
75 | RRIRYRPPRLPRPRPRPMHEPRP | -0.405

Row | Sequence | shrunken log2 fold change
76 | RRIRVRPPRLPRPRPRPAPRPRP | 0.634
77 | RRIRMRPPRLPRPRPRPHGVPRP | 0.023
78 | RRIRIRPPRLPRPRPRPHTVPRP | -0.588
79 | RRIRPRPPRLPRPRPRPCCRPRP | -0.339
80 | RRIRYRPPRLPRPRPRPRRAPRP | 0.364
81 | RRIRCRPPRLPRPRPRPHEMPRP | -0.0763
82 | RRIRDRPPRLPRPRPRPCLRPRP | -0.188
83 | RRIRPRPPRLPRPRPRPGCKPRP | 0.368
84 | RRIRRRPPRLPRPRPRPGATPRP | 0.74
85 | RRIRTRPPRLPRPRPRPYFGPRP | -0.589
86 | RRIRFRPPRLPRPRPRPGCVPRP | 0.15
87 | RRIRFRPPRLPRPRPRPMWFPRP | -0.0145
88 | RRIRERPPRLPRPRPRPLHTPRP | -0.674
89 | RRIRPRPPRLPRPRPRPIMFPRP | -0.37
90 | RRIRGRPPRLPRPRPRPQKNPRP | 0.368
91 | RRIRRRPPRLPRPRPRPHCAPRP | 0.419
92 | RRIRKRPPRLPRPRPRPDDYPRP | 0.276
93 | RRIRVRPPRLPRPRPRPVTHPRP | -0.277
94 | RRIRRRPPRLPRPRPRPVQMPRP | 0.158
95 | RRIRWRPPRLPRPRPRPAWPPRP | 0.558
96 | RRIRLRPPRLPRPRPRPLPTPRP | 0.293
97 | RRIRWRPPRLPRPRPRPLARPRP | 0.432
98 | RRIRIRPPRLPRPRPRPIASPRP | -0.567
99 | RRIRGRPPRLPRPRPRPTGVPRP | 0.742
100 | RRIRGRPPRLPRPRPRPAEKPRP | 0.261

Row | Sequence | shrunken log2 fold change
101 | RRIRWRPPRLPRPRPRPPGQPRP | 0.123
102 | RRIRYRPPRLPRPRPRPFKMPRP | -0.673
103 | RRIRKRPPRLPRPRPRPARYPRP | 0.513
104 | RRIRDRPPRLPRPRPRPQLHPRP | 0.267
105 | RRIRMRPPRLPRPRPRPISEPRP | 0.151
106 | RRIRWRPPRLPRPRPRPHEKPRP | -0.00914
107 | RRIRKRPPRLPRPRPRPWPVPRP | 0.47
108 | RRIRCRPPRLPRPRPRPTHVPRP | 0.437
109 | RRIRERPPRLPRPRPRPNKIPRP | -0.642
110 | RRIRGRPPRLPRPRPRPRCIPRP | 0.273
111 | RRIRFRPPRLPRPRPRPCMGPRP | -0.49
112 | RRIRKRPPRLPRPRPRPTLKPRP | 0.601
113 | RRIRIRPPRLPRPRPRPVPIPRP | -0.403
114 | RRIRMRPPRLPRPRPRPHSCPRP | 0.0321
115 | RRIRWRPPRLPRPRPRPNRCPRP | 0.0312
116 | RRIRKRPPRLPRPRPRPESQPRP | 0.967
117 | RRIRRRPPRLPRPRPRPFKYPRP | -0.252
118 | RRIRIRPPRLPRPRPRPSEEPRP | -0.188
119 | RRIRLRPPRLPRPRPRPWLSPRP | -0.0106
120 | RRIRYRPPRLPRPRPRPCRWPRP | -0.267
121 | RRIRSRPPRLPRPRPRPDLNPRP | 0.0448
122 | RRIRVRPPRLPRPRPRPDLWPRP | 0.115
123 | RRIRQRPPRLPRPRPRPLTTPRP | 0.106
124 | RRIRIRPPRLPRPRPRPHVQPRP | -0.131
125 | RRIRSRPPRLPRPRPRPDGLPRP | 0.0397

From the supplement of paper PMC9112550, “Optimization of the antimicrobial peptide Bac7 by deep mutational scanning” (BMC Biology, 2022)
